One molecule from US20210371519A1 (UNIVERSITY OF CINCINNATI, published 2021) can be followed below.

This assay has as its target T1, human FcεRIα (alpha chain of the high affinity IgE receptor FcεRI) (human, UniProt P12319 26-257).
T1 construct: whole, on cells; also called huFcεRIα; hu FcεRIα
T1 sequence (looked up): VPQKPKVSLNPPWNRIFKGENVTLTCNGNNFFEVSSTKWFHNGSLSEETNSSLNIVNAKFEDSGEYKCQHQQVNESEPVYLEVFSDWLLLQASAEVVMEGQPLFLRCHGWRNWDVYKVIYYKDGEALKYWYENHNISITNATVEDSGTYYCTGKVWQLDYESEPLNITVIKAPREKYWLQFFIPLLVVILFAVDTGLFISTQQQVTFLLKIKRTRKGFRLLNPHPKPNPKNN
Description: not described.

B1: IE7 anti-huFcεRIα mAb (mouse IgG1, hybridoma ATCC PTA-125115) (antibody, V domains shown)
VH: QVQLQESGGDVVKPGGSLKLSCAASGFTFSFYGMSWVRQTPDKKLEWVATISGGGNYTYYPDSVKGRFTISRDNAMNTLYLQMNSLKSEDTAMYYCVRAYYGNWNSYWGQGTLVTVS
VL: DIVMTQTPSSMYASLGERVTITCKASQDINNYLSWFQQKPGRSPKTLIYRANRLMDGVPSRIRGSGSGQDYSLTISSLEYEDMGIYYCLLYNEFPWMFGGGTKLEIKR
notes: Original hybridoma antibody, mouse IgG1; also called mAb IE7
As for B1, the binding result was “binds”.
